Measurements taken from PMC3295773.

Key:
[1] = target: complexin 2 (pig (endogenous in boar sperm)); test: SDS-resistant complexes on SDS-PAGE, Western blot (bands of the same size); whole sperm lysate, remaining head fraction and mixed vesicles of boar sperm treated with bicarbonate and 5 uM Ca2+ ionophore A23187; 35 ug crude protein a lane; non-reducing (RT, no reducing agent) or reducing (100 C, 10 min, 0.1 M DTT) conditions
[2] = target: complexin 2 (pig (endogenous in boar sperm)); test: SDS-resistant complexes on SDS-PAGE, Western blot (bands of the same size); membrane cavitates of bicarbonate-capacitated boar sperm pre-incubated with 0-4 mM CaCl2 and 5 uM Ca2+ ionophore at 37 C for 20 min; non-reducing conditions; blot for complexin 1/2; most complexin left the 95 kDa complex as Ca2+ rose
[3] = target: complexin 2 (pig (endogenous in boar sperm)); test: SDS-resistant complexes on SDS-PAGE, Western blot (bands of the same size); boar sperm incubated with bicarbonate (with or without Ca2+ ionophore), lysed in 1% Triton X-100 on ice, sucrose gradient fractions 1-13; non-reducing SDS-PAGE; blots for complexin 1/2, syntaxin 3, SNAP 23, VAMP 2, syntaxin 1B, VAMP 3

Measured: stoichiometry N

complexin 2 (natural protein)
2: all assays above
